Results reported in patent US20230330253A1.

Target: human claudin 18.2 (CLDN18.2) (human)
Assay: cell-based or functional assay

- Fluorescence, pHAb internalization on MKN45-CLDN18.2 cells, 20 nM antibody, normalized by DAR: 854
- Fluorescence, pHAb internalization on MKN45-CLDN18.2 cells, 100 nM antibody, normalized by DAR: 2700
Substance: IgG (Control) (antibody)
